The values that follow come from patent publication US20240190960A1 (Chugai, published 2024).

The labels stand for the following.
B1: CLA0022 Fab fragment (from CLA0022VH-F760mnP17/CLA0022VL-k0C) (Fab, V domains shown)
VH: QSLEESGGDLVKPGASLTLTCTASGFSFSSSYWIYWVRQAPGKGLEWIACIYAGVNDITYYANWAKGRFTISKTSSTTVTLQMTSLTAADTATYFCAKGSPDDAFHSWGPGTLVTVSS
VL: DVVMTQTPASVSEPVGGTVTIKCQASQSIGNYLAWYQQKPGQPPKLLIYYASNLASGVSSRFKGSRSGTEFTLTINDLECADAATYYCQCAYYDSVYVTFGGGTEVVVKR
notes: Fab prepared from the full antibody with the Pierce Fab Preparation Kit; Rabbit-derived variable regions on human constant regions; also called clamping antibody CLA0022
B2: CLA0028 Fab fragment (from CLA0028VH-F760mnP17/CLA0028VL-k0C) (Fab, V domains shown)
VH: B1 VH with V55S, N56T, D57S, I58S, N63S, S100G
VL: B1 VL with N76S, D94E, V96S
notes: also called clamping antibody CLA0028
B3: CLA0311 Fab fragment (from CLA0311VH-F760mnP17/CLA0311VL-k0C) (Fab, V domains shown)
VH: QSLEESGGGLVQPEGSLTLTCTASGFSLSSSYWICWVRQAPGKGLEWIGCIYTGSGGATHYASWAKGRFTISKTSSTTVTLQMTSLTAADTATYFCASAESGYYAGFFFAPWGPGTLVTVSS
VL: AFELTQTPSSVEAAVGGTVTIKCQASESIYSGLAWYKQKPGQPPKLLIYSASTLASGVSSRFKGSGSGTQFTLTISDLECADAATYYCQSYYGGSVTGYNTFGGGTEVVVKR
notes: Fab prepared from the full antibody with the Pierce Fab Preparation Kit; also called clamping antibody CLA0311
B4: SC002 (antibody, human IgG1, lambda, V domains shown)
VH: EVQLVQSGAEVKKPGASVKVSCKASGYTFTSYGISWVRQAPGQGLEWMGWISAYNGNTNYAQKLQGRVTMTTDTSTSTAYMELRSLRSDDTAVYYCARVSSGSQPDPPYYYYYGMDVWGQGTMVTVSS
VL: QSVLTQPASVSGSPGQSITISCTGTSSNVESYNLVSWYQQHPGKAPKFIIYEGTRRPSGISNRFSGANSGNAASLTISGLQAEDEADYYCLSYVPSRRRHVFGTGTKVTVLS
notes: also called adenosine-clamping antibody SC002
B5: SC048 (antibody, human IgG1, lambda, V domains shown)
VH: QVQLQESGGGVVQPGRSLRLSCAASGFTFSSYAMHWVRQAPGKGLEWVAVISYDGSNKYYADSVKGRFTISRDNSKNTLYLQMNSLRAEDTAVYYCAKGYSYGPGYFFDYWGQGTLVTVSS
VL: SSELTQPPSVSVSPGQTANISCSADKLGGKYVSWYQQKPGQSPVLVMYQDKKRPSGIPERLSGSGSGNTATLTISGTQAMDEATYYCQTWDGRSLFFGGGTRLTVLS
notes: also called adenosine-clamping antibody SC048
B6: SC016 (antibody, human IgG1, lambda, V domains shown)
VH: EVQLVQSGGGLVQPGRSLRLSCAASGFTFDNHAMHWVRQAPGKGLEWVSRINWNSGGIDYADSVKGRFTISRDNAKNSLYLQMNSLRAEDTALYYCVKDRGSGWYDAFDLWGQGTMVTVSS
VL: SYELTQPPSVSVAPGQTTRIACGGDSVGSESVHWYQQRPGQAPVLVISYDSDRPSGIPERFSGSKSGNTATLTISRVEAGDEADYYCQVWNSASDHWVFGGGTKLTVLG
notes: also called adenosine-clamping antibody SC016
B7: SC003 (antibody, human IgG1, lambda, V domains shown)
VH: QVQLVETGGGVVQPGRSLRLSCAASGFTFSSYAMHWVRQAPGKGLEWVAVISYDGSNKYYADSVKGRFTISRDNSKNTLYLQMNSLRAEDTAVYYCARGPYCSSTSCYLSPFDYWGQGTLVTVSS
VL: QSVLTQPPSVSAAPGQKVTISCSGNTSNIGNNYVSWYQQLPGTAPKLLIYRNSDRPSGVPDRFSGSKSGTSASLAITGLQAEDEADYYCQSYDTSLTAVIFGGGTKLTVLG
notes: also called adenosine-clamping antibody SC003
B8: SC019 (antibody, human IgG1, lambda, V domains shown)
VH: EVQLVESGGGLVKPGGSLRLSCAASGFTFSDYYMSWIRQAPGKGLEWVSYISSSGSTIYYADSVKGRFTISRDNAKNSLYLQMNSLRAEDTAVYYCARASPNVNEGAFDIWGQGTMVTVSS
VL: QSVLTQPPSMSAAPGQKVTISCSGSGSNIGSSYVSWYQQLPGKAPRLLIYDNNKQVSWVPDRFSGSKSGTSASLVISGLQTGDEADYYCGTWDRSLSAGVFGGGTKVTVLG
notes: also called adenosine-clamping antibody SC019
B9: SC032 (antibody, human IgG1, kappa, V domains shown)
VH: QVQLQQSGAEVKKPGSSVKVSCKASGGTFSSYAISWVRQAPGQGLEWMGRIIPILGIANYAQKFQGRVTITADKSTSTAYMELSSLRSEDTAVYYCAREGLTPYYYGSELGNGMDVWGQGTTVTVSS
VL: DIQLTQSPSSLSTFVGDRVTITCRTSQNINSYLNWYQQKPGKAPKLLISTTSNLQSGVPSRFSGSGSGTDFTLTINNLQPEDFAIYYCQQTKSFPLTFGGGTKLEIKR
notes: also called adenosine-clamping antibody SC032
B10: SC001 (antibody, human IgG1, lambda, V domains shown)
VH: QVQLVQSGGGVVQPGRSLRLSCAASGFTFSSYAMHWVRQAPGKGLEWVAVISYDGSNKYYADSVKGRFTISRDNSKNTLYLQMNSLRAEDTAVYYCARVYQGGATPYYYYGMDVWGQGTMVTVSS
VL: SYELTQPPSASGTPGQRVTVSCSGSTSNIGNHAVNWYQQLPGTAPKLLIYTNDQRPSGVPNRFSGSKSGISASLAISGLQSEDEADYYCSAWDDSLIGYVFGAGTKVTVLG
notes: also called adenosine-clamping antibody SC001
B11: SC034 (antibody, human IgG1, lambda, V domains shown)
VH: QVQLQQSGAEVKKPGASVKVSCKASGYTFTSYGISWVRQAPGQGLEWMGWISAYNGNTNYAQKLQGRVTMTTDTSTSTAYMELRSLRSDDTAVYYCARDYHSTRPDWPPFPYYYYYGMDVWGQGTTVTVSS
VL: QSVLTQPHSVSESPGKTVTISCTRSSGRIAANNVQWYQQRPGSAPTTIIYEDNRRPSGVPDRFSGSIDGSSNSASLTISGLKPEDEADYYCQSYVSTTVVFGGGTKLTVLG
notes: also called adenosine-clamping antibody SC034
B12: SC014 (antibody, human IgG1, lambda, V domains shown)
VH: EVQLVQSGGGLVQPGRSLRLSCAASGFTFDDYAMHWVRQAPGKGLEWVSGISWNSGSIGYADSVKGRFAISRDNAKNSLYLQMNSLRAEDTALYYCAKAWNDDAFDIWGQGTMVTVSS
VL: QSVVTQPPSVSGAPGQRVTVSCTGSNSNIGAGYDVHWYQQLPGTAPKLLIYGSNNRPSGVPDRFSASRSGTSASLAITGLQAEDEAEYYCQTYDTGLSGPGVVFGGGTKVTVLS
notes: also called adenosine-clamping antibody SC014
B13: SC044 (antibody, human IgG1, lambda, V domains shown)
VH: not shown
VL: QSVLTQPPSVSGAPGQRVTISCTGSSSNIGAGYDVHWYQQLPGTAPKLLIYGNSNRPSGVPDRFSGSKSGTSASLAITGLQAEDEADYYCQSYDDSRSAVVFGGGTKLTVLG
notes: also called adenosine-clamping antibody SC044
B14: SC045 (antibody, human IgG1, lambda, V domains shown)
VH: QVQLVESGGGLVQPGGSLRLSCAASGFTFSDHYMDWVRQAPGKGLEWVGRTRNKANSYTTEYAASVKGRFTISRDDSKNSLYLQMNSLKTEDTAVYYCARGPTLAYIGYMDYWGQGTLVTVSS
VL: B13 VL with D95G, R97L, A99V
notes: also called adenosine-clamping antibody SC045

Substitutions are numbered along the chain they refer to.

Sequence of CD3 antibody CE115HA056 (CE115HA056-F760mnP17/GLS3000-k0) (heavy, as listed by the source, chain 1 of 2): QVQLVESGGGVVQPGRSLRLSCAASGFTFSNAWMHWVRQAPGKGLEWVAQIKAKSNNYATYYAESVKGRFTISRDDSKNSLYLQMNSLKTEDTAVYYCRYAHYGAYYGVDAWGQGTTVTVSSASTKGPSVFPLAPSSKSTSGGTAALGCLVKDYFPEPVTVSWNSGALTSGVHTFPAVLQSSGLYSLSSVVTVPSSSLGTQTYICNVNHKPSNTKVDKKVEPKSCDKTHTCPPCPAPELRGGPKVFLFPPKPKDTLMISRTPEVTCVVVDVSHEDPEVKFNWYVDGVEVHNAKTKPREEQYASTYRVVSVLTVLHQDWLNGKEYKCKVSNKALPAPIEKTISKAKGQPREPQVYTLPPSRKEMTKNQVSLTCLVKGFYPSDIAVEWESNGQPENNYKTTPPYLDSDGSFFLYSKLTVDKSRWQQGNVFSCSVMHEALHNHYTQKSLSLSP
Sequence of CD3 antibody CE115HA056 (CE115HA056-F760mnP17/GLS3000-k0) (light, as listed by the source, chain 2 of 2): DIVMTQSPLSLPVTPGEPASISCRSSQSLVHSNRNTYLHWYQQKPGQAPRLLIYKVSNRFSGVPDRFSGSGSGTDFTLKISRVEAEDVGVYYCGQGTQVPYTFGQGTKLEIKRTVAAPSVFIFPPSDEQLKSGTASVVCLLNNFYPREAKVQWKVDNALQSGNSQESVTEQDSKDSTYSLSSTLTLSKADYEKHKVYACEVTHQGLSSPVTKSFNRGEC
Sequence of CD3 antibody CE115HA146 (CE115HA146-F760mnP17/GLS3000-k0) (heavy, as listed by the source, chain 1 of 2): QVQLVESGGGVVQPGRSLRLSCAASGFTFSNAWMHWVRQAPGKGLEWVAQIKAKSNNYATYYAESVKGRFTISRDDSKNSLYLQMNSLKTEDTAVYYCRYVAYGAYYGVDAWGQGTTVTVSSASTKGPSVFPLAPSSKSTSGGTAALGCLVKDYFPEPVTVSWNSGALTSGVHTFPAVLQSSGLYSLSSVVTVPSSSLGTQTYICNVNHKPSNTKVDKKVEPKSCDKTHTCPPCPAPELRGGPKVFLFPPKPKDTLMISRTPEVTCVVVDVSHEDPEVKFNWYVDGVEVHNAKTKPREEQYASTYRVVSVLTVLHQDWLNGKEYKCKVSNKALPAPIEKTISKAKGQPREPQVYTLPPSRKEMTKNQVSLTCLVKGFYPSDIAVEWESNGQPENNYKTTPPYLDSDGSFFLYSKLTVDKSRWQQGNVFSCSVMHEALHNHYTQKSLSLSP
T3 sequence (heavy, as listed by the source, chain 1 of 2): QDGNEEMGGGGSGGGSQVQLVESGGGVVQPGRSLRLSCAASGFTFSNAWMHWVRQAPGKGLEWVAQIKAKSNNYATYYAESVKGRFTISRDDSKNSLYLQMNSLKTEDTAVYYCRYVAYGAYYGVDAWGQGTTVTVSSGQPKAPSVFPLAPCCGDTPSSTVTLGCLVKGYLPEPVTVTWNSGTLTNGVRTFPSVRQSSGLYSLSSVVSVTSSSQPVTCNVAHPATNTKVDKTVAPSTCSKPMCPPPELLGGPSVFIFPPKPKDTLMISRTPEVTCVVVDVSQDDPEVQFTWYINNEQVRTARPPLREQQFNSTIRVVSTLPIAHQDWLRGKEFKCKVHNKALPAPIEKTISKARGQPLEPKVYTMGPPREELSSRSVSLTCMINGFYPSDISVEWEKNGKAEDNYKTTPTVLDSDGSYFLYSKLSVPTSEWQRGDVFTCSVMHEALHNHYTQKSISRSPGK
T3 sequence (light, as listed by the source, chain 2 of 2): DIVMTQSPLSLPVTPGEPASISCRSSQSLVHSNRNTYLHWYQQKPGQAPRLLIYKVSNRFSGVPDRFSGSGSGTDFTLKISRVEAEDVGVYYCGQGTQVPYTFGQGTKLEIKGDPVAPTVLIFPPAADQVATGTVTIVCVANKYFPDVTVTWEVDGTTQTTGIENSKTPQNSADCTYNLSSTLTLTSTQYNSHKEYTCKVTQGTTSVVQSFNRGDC

The target in one assay is CD3 antibody CE115HA000 (CE115HA000-F760mnP17/GLS3000-k0). Briefly: SPR (Biacore), 37 C; ligand antibody captured on SuRe protein A chip (1000 RU), Fab as analyte at 100 nM for 180 s; amount of binding per 1 RU of ligand. The procedure: (§1) SuRe protein A (GE Healthcare) prepared at 25 μg/mL using Acetate4.5 (GE Healthcare) was immobilized on sensor chip CM4 at approximately 1000 RU per flow cell using an amine coupling kit (GE Healthcare).
Sequence of CD3 antibody CE115HA000 (CE115HA000-F760mnP17/GLS3000-k0) (VH, as listed by the source, chain 1 of 2): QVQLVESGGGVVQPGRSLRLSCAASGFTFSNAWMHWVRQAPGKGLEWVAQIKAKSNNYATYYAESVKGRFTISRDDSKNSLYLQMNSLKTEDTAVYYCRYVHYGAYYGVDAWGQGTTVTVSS
Sequence of CD3 antibody CE115HA000 (CE115HA000-F760mnP17/GLS3000-k0) (VL, as listed by the source, chain 2 of 2): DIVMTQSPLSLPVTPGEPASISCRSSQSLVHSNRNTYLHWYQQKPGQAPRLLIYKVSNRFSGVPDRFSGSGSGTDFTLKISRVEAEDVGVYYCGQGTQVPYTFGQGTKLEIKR
(§2) First, to evaluate the binding specificity of the clamping antibodies, a ligand was reacted at 37° C. for 60 seconds at a flow rate of 10 μL/min to capture 1000 RU, and an analyte prepared at 100 nM was allowed to act for 180 seconds at a flow rate of 30 μL/min, and the amount of binding was measured.
(SPR reads the build-up and loss of mass on a sensor chip optically.)
As for B1, the binding result is recorded as “no binding (tested: 100 nM)”.
Regarding B2, the binding result is given as “no binding (tested: 100 nM)”.
B3: the binding result is listed as “no binding (tested: 100 nM)”.

In another assay the target is T1, CD3ε epitope-fused GPC3 antibody (hGC33VHGP01-rabCH1hG1m/hGC33VL-rabk).
T1 construct: control for recognition of the peptide alone
T1 sequence (VH, as listed by the source, chain 1 of 2): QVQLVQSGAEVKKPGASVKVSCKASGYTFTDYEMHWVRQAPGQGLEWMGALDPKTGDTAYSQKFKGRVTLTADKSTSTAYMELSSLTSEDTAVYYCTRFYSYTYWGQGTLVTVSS
T1 sequence (VL, as listed by the source, chain 2 of 2): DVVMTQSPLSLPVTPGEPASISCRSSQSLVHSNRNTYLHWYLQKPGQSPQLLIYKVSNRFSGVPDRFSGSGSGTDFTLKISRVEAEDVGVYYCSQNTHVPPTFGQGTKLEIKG
The description is as above. The method, then: as §1, §2
As to B1, the binding result is “no binding (tested: 100 nM)”.
On to B2, for which the binding result was “no binding (tested: 100 nM)”.
Regarding B3, the binding result is listed as “no binding (tested: 100 nM)”.

A further assay addresses CD3 antibody CE115HA056 (CE115HA056-F760mnP17/GLS3000-k0). The description is as above. The method, then:
as §1, §2
On to B1, for which the binding result is reported as “no binding (tested: 100 nM)”.
Take B2: the binding result was “no binding (tested: 100 nM)”.
On to B3, for which the binding result is recorded as “no binding (tested: 100 nM)”.

The next assay concerns the target CD3 antibody CE115HA146 (CE115HA146-F760mnP17/GLS3000-k0). The description is as above. The method, then: as §1, §2
B1: the binding result is on record as “no binding (tested: 100 nM)”.
Consider B2, for which the binding result is reported as “no binding (tested: 100 nM)”.
With B3, the binding result is listed as “no binding (tested: 100 nM)”.

For another assay, the target named is T2, negative control IC17 (IC17Hdk-F760mnP17/IC17L-k0).
T2 construct: also called anti-KLH antibody
T2 sequence (VH, as listed by the source, chain 1 of 2): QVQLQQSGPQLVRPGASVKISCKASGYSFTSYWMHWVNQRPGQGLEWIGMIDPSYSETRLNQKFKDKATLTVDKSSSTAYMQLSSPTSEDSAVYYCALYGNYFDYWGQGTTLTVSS
T2 sequence (VL, as listed by the source, chain 2 of 2): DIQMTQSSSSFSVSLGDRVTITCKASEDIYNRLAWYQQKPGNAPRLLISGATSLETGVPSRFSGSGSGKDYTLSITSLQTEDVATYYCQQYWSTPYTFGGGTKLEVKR
Described as above. The procedure:
as §1, §2
On to B1, for which the binding result is listed as “no binding (tested: 100 nM)”.
Take B2: the binding result is given as “no binding (tested: 100 nM)”.
With B3, the binding result was “no binding (tested: 100 nM)”.

A further assay concerns the target T3, CD3ε epitope-fused CE115HA146 (CE115HAGP13-rabIgG/GLS3000-rabk).
T3 construct: stands for the antigen/antibody complex; Rabbit constant regions; also called CE115HAPG13
The experiment in a line: SPR (Biacore T200), ligand captured on protein A, Fab 0-400 nM as analyte, 37 C. The method, then:
as §1
(§3) The sensor chip was regenerated by passing Glycine1.5 and 25 mM NaOH, each at a flow rate of 30 μL/min for 15 seconds. The dissociation constant KD (M) was calculated based on the association rate constant ka (1/Ms) and the dissociation rate constant kd (1/s), which are kinetic parameters calculated from the sensorgram obtained by the measurement. Biacore T200 Evaluation Software (GE Healthcare) was used for calculation of each parameter.
A word on the Kd: it is a measure of binding affinity in units of concentration. Lower therefore signals a tighter complex. In the case of B1, binding was characterised by a dissociation constant (Kd) of 17 nM.
Take B2: the dissociation constant (Kd) stood at 78 nM.

For another assay, the target named is T4, CD3ε epitope-fused CE115HA056 (CE115HAGP12-rabIgG/GLS3000-rabk).
T4 construct: rabbit constant regions; also called CE115HAPG12
T4 sequence (heavy, as listed by the source, chain 1 of 2): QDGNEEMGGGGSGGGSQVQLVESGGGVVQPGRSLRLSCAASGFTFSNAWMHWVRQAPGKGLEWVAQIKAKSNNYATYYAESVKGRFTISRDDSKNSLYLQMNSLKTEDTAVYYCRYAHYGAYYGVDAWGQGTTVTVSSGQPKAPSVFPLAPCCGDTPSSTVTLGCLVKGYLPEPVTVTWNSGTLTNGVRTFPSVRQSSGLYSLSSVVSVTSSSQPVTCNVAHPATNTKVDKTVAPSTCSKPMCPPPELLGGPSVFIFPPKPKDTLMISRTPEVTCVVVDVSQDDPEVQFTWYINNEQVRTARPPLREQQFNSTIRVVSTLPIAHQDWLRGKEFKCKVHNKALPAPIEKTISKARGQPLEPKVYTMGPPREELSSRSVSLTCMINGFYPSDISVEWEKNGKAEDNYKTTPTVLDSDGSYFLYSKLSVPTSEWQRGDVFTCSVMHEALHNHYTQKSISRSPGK
Described as above. The method, then: as §1, §3
Turning to B1, the affinity, expressed as Kd, was 14 nM.
B2 gave a Kd of 74 nM.

In the next assay the target is T5, adenosine-binding antibody SMB0002hH-G1m3/SMB0002hL-k0a.
T5 construct: also called biotinylated SMB0002hH-G1m3/SMB0002hL-k0
T5 sequence (VH, as listed by the source, chain 1 of 2): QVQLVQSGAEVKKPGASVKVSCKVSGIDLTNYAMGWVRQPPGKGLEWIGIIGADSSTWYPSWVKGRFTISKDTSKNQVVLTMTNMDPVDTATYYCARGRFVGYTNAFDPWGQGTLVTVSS
T5 sequence (V domain, as listed by the source, chain 2 of 2): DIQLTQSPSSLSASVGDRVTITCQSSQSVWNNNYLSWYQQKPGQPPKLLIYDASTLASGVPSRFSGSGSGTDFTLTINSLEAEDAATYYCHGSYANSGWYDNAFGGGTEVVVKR
The experiment in a line: BLI (OctetHTX), target on streptavidin sensor, antibody 10 ug/mL, 30 C, with and without adenosine. The method, then:
Evaluation of the binding of each prepared and purified antibody to a complex of adenosine with an adenosine-binding antibody was performed using OctetHTX (ForteBio). Specifically, biotinylated SMB0002Fab prepared by the method described in Example 9, which was prepared with TBS or adenosine/TBS or SMB0002hH-G1m3/SMB0002hL-k0a biotinylated with EZ-Link Sulfo-NHS-SS-Biotin was bound to Dip and Read™ Streptavidin (SA) Biosensors (ForteBio). Subsequently, each purified antibody prepared at 10 μg/mL using TBS or adenosine/TBS was allowed to act, and the binding at 30° C. was evaluated.
B4: the binding result was “binds”.
Take B5: the binding result is “binds”.
As to B6, the binding result is “binds”.
Regarding B7, the binding result was “binds”.
On the same count and under the same terms, to B8 belongs “binds”; to B9, “binds”; to B10, “binds”.
Turning to B11, the binding result is recorded as “binds”.
On the same count and under the same terms, to B12 belongs “binds”; to B13, “binds”.
As to B14, the binding result is recorded as “binds”.
